# No end group written: not given here.
# Target: T1, PFI-002 receptor (Homo sapiens, UniProt Q9GZQ4, S2A)
# T1 construct: expressed in transfected cells; host or cells: HEK 293 (human embryonic kidney), transient transfection
# Experiment: Functional screen of peptides by FLIPR (Fluo-3 fluorescence) in HEK 293 cells transiently transfected with PFI-002
# Type: cell-based
# Details: HEK 293 cells transiently transfected with PFI-002, Fluo-3 loaded; neuromedins 10 μM final, in triplicate; other peptides 5 μM final
# Description: Transient Expression in Native HEK 293 Cells
# Transfection: 7.5 μg of PFI-002 DNA was transiently transfected into native human embryonic kidney 293 (HEK 293) cells (75 cm^2 flask, 80% confluent) using the Lipofectamine Plus protocol (Life Technologies, Inc.) and following the manufacturer's instructions. 24 hrs after transfection, the cells were detached with trypsin and seeded into black walled 96 well plates at a density of 5×10^4 cells/well. The next day the cells were loaded with Fluo-3 in the presence of 3 mM probenicid (Molecular Devices; inhibits activity of the anion transport protein, thus improving dye loading) for 1.5 hours (loading dye/96 well plate: 50 μg Fluo-3 in 20 μl DMSO+20 μl 20% pluronic acid in DMSO+11 ml growth media+3 mM probenicid—added 100 μl loading dye/well). After washing (wash buffer PBS/3 mM probenicid/pH 7.4), the cells were exposed to 60 peptides (final concentration 5 μM each) arrayed in a 96 well plate. In addition, neuromedins B, C, N, U8 and U25 (final concentration 10 μM each) were screened in triplicate. Fluorescence was measured by a Fluorometric Imaging Plate Reader (FLIPR, Molecular Devices) according to the manufacturer's protocol.
# T1 sequence (Q9GZQ4 whole entry S2A): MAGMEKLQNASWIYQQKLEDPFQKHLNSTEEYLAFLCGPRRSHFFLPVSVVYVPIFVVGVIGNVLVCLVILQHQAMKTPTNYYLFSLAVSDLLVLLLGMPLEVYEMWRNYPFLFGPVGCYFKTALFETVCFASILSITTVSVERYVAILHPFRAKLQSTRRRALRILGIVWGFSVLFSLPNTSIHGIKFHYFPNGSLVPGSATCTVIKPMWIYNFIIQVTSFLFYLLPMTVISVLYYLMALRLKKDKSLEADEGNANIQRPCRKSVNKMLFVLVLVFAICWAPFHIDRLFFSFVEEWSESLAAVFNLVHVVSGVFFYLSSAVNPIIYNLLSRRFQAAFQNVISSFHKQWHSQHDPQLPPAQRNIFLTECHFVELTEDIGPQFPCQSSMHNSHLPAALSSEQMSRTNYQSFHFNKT
substance,measurement,value
"neuromedin U: Peptide ligand of the PFI-002 receptor; screened as Neuromedin U8 and Neuromedin U25 (wells F10-G3) (FRVDEEFQSPFASQSRGYFLFRPRN; ends and bridges not checked; UniProt P48645 142-166, looked up)","functional response of PFI-002 receptor (fluorescence measured by FLIPR, FIG. 2)",specific functional response
